Holding throughout (experiment): BLI
Common to all, as to settings: both partners purified

The target in assay [1] is T1, CoV2 Parental S-RBD fused with human Fc (SARS-CoV-2, UniProt P0DTC2).
T1 construct: also called Parental RBD; RBD-Fc

The target in assay [2] is T2, CoV2 Parental S-RBD fused with human Fc (SARS-CoV-2, UniProt P0DTC2).
T2 construct: also called Parental RBD; RBD-Fc (Parental)

In assay [3] the target is T3, CoV2 Omicron S-RBD with human Fc (SARS-CoV-2, UniProt P0DTC2).
T3 construct: also called Omicron RBD; RBD-Fc (Omicron)

Values joined by “and” are separate entries in the source; they are usually repeats but may differ in a detail not shown here. Equal values may be shown once.

One may read the Kd as the concentration at which binding is half-saturated.

B1: shACE2 N90A/N322A double glycan deletant (domain or fragment)
chain: STIEEQAKTFLDKFNHEAEDLFYQSSLASWNYNTNITEENVQNMNNAGDKWSAFLKEQSTLAQMYPLQEIQALTVKLQLQALQQNGSSVLSEDKSKRLNTILNTMSTIYSTGKVCNPDNPQECLLLEPGLNEIMANSLDYNERLWAWESWRSEVGKQLRPLYEEYVVLKNEMARANHYEDYGDYWRGDYEVNGVDGYDYSRGQLIEDVEHTFEEIKPLYEHLHAYVRAKLMNAYPSYISPIGCLPAHLLGDMWGRFWTNLYSLTVPFGQKPNIDVTDAMVDQAWDAQRIFKEAEKFFVSVGLPAMTQGFWENSMLTDPGNVQKAVCHPTAWDLGKGDFRILMCTKVTMDDFLTAHHEMGHIQYDMAYAAQPFLLRNGANEGFHEAVGEIMSLSAATPKHLKSIGLLSPDFQEDNETEINFLLKQALTIVGTLPFTYMLEKWRWMVFKGEIPKDQWMKKWWEMKREIVGVVEPVPHDETYCDPASLFHVSNDYSFIRYYTRTLYQFQFQEALCQAAKHEGPLHKCDISNSTEAGQKLFNMLRLGKSEPWTLALENVVGAKNMNVRPLLNYFEPLFTWLKDQNKNSFVGWSTDWSPYADQSIK
notes: also called N90A/N322A double deletant
For B1, the Kd in assay [1] was 115 nM.

B2: soluble hACE2 N53A/N90A/N322A (receptor)
chain: STIEEQAKTFLDKFNHEAEDLFYQSSLASWNYNTAITEENVQNMNNAGDKWSAFLKEQSTLAQMYPLQEIQALTVKLQLQALQQNGSSVLSEDKSKRLNTILNTMSTIYSTGKVCNPDNPQECLLLEPGLNEIMANSLDYNERLWAWESWRSEVGKQLRPLYEEYVVLKNEMARANHYEDYGDYWRGDYEVNGVDGYDYSRGQLIEDVEHTFEEIKPLYEHLHAYVRAKLMNAYPSYISPIGCLPAHLLGDMWGRFWTNLYSLTVPFGQKPNIDVTDAMVDQAWDAQRIFKEAEKFFVSVGLPAMTQGFWENSMLTDPGNVQKAVCHPTAWDLGKGDFRILMCTKVTMDDFLTAHHEMGHIQYDMAYAAQPFLLRNGANEGFHEAVGEIMSLSAATPKHLKSIGLLSPDFQEDNETEINFLLKQALTIVGTLPFTYMLEKWRWMVFKGEIPKDQWMKKWWEMKREIVGVVEPVPHDETYCDPASLFHVSNDYSFIRYYTRTLYQFQFQEALCQAAKHEGPLHKCDISNSTEAGQKLFNMLRLGKSEPWTLALENVVGAKNMNVRPLLNYFEPLFTWLKDQNKNSFVGWSTDWSPYADQSIK
notes: also called N53A/N90A/N322A triple deletant
For B2, the Kd in assay [2] is 262 nM and 246 nM; in assay [3], 67.1 nM and 75.5 nM and 71.3 nM.

B3: soluble hACE2 N53A/N322A (receptor)
chain: STIEEQAKTFLDKFNHEAEDLFYQSSLASWNYNTAITEENVQNMNNAGDKWSAFLKEQSTLAQMYPLQEIQNLTVKLQLQALQQNGSSVLSEDKSKRLNTILNTMSTIYSTGKVCNPDNPQECLLLEPGLNEIMANSLDYNERLWAWESWRSEVGKQLRPLYEEYVVLKNEMARANHYEDYGDYWRGDYEVNGVDGYDYSRGQLIEDVEHTFEEIKPLYEHLHAYVRAKLMNAYPSYISPIGCLPAHLLGDMWGRFWTNLYSLTVPFGQKPNIDVTDAMVDQAWDAQRIFKEAEKFFVSVGLPAMTQGFWENSMLTDPGNVQKAVCHPTAWDLGKGDFRILMCTKVTMDDFLTAHHEMGHIQYDMAYAAQPFLLRNGANEGFHEAVGEIMSLSAATPKHLKSIGLLSPDFQEDNETEINFLLKQALTIVGTLPFTYMLEKWRWMVFKGEIPKDQWMKKWWEMKREIVGVVEPVPHDETYCDPASLFHVSNDYSFIRYYTRTLYQFQFQEALCQAAKHEGPLHKCDISNSTEAGQKLFNMLRLGKSEPWTLALENVVGAKNMNVRPLLNYFEPLFTWLKDQNKNSFVGWSTDWSPYADQSIK
notes: also called double glycan deletant
Take B3: the Kd in assay [2] is 411 nM and 395 nM and 403 nM; in assay [3] it was 164 nM and 139 nM and 151 nM.

B4: soluble hACE2 N53S/N90S/N322S (receptor)
chain: STIEEQAKTFLDKFNHEAEDLFYQSSLASWNYNTSITEENVQNMNNAGDKWSAFLKEQSTLAQMYPLQEIQSLTVKLQLQALQQNGSSVLSEDKSKRLNTILNTMSTIYSTGKVCNPDNPQECLLLEPGLNEIMANSLDYNERLWAWESWRSEVGKQLRPLYEEYVVLKNEMARANHYEDYGDYWRGDYEVNGVDGYDYSRGQLIEDVEHTFEEIKPLYEHLHAYVRAKLMNAYPSYISPIGCLPAHLLGDMWGRFWTNLYSLTVPFGQKPNIDVTDAMVDQAWDAQRIFKEAEKFFVSVGLPSMTQGFWENSMLTDPGNVQKAVCHPTAWDLGKGDFRILMCTKVTMDDFLTAHHEMGHIQYDMAYAAQPFLLRNGANEGFHEAVGEIMSLSAATPKHLKSIGLLSPDFQEDNETEINFLLKQALTIVGTLPFTYMLEKWRWMVFKGEIPKDQWMKKWWEMKREIVGVVEPVPHDETYCDPASLFHVSNDYSFIRYYTRTLYQFQFQEALCQAAKHEGPLHKCDISNSTEAGQKLFNMLRLGKSEPWTLALENVVGAKNMNVRPLLNYFEPLFTWLKDQNKNSFVGWSTDWSPYADQSIK
notes: also called triple glycan deletant
For the molecule B4, the Kd in assay [2] was 178 nM and 219 nM and 198 nM; in assay [3] it was 64.7 nM and 72.7 nM and 68.7 nM.

B5: soluble hACE2 N90S/N322S (receptor)
chain: STIEEQAKTFLDKFNHEAEDLFYQSSLASWNYNTNITEENVQNMNNAGDKWSAFLKEQSTLAQMYPLQEIQSLTVKLQLQALQQNGSSVLSEDKSKRLNTILNTMSTIYSTGKVCNPDNPQECLLLEPGLNEIMANSLDYNERLWAWESWRSEVGKQLRPLYEEYVVLKNEMARANHYEDYGDYWRGDYEVNGVDGYDYSRGQLIEDVEHTFEEIKPLYEHLHAYVRAKLMNAYPSYISPIGCLPAHLLGDMWGRFWTNLYSLTVPFGQKPNIDVTDAMVDQAWDAQRIFKEAEKFFVSVGLPSMTQGFWENSMLTDPGNVQKAVCHPTAWDLGKGDFRILMCTKVTMDDFLTAHHEMGHIQYDMAYAAQPFLLRNGANEGFHEAVGEIMSLSAATPKHLKSIGLLSPDFQEDNETEINFLLKQALTIVGTLPFTYMLEKWRWMVFKGEIPKDQWMKKWWEMKREIVGVVEPVPHDETYCDPASLFHVSNDYSFIRYYTRTLYQFQFQEALCQAAKHEGPLHKCDISNSTEAGQKLFNMLRLGKSEPWTLALENVVGAKNMNVRPLLNYFEPLFTWLKDQNKNSFVGWSTDWSPYADQSIK
notes: as for B3
Turning to B5, the Kd in assay [2] is 123 nM and 126 nM and 125 nM; in assay [3] it was 38.2 nM and 38.5 nM and 38.4 nM.

B6: soluble hACE2 N53A/N90A (receptor)
chain: STIEEQAKTFLDKFNHEAEDLFYQSSLASWNYNTAITEENVQNMNNAGDKWSAFLKEQSTLAQMYPLQEIQALTVKLQLQALQQNGSSVLSEDKSKRLNTILNTMSTIYSTGKVCNPDNPQECLLLEPGLNEIMANSLDYNERLWAWESWRSEVGKQLRPLYEEYVVLKNEMARANHYEDYGDYWRGDYEVNGVDGYDYSRGQLIEDVEHTFEEIKPLYEHLHAYVRAKLMNAYPSYISPIGCLPAHLLGDMWGRFWTNLYSLTVPFGQKPNIDVTDAMVDQAWDAQRIFKEAEKFFVSVGLPNMTQGFWENSMLTDPGNVQKAVCHPTAWDLGKGDFRILMCTKVTMDDFLTAHHEMGHIQYDMAYAAQPFLLRNGANEGFHEAVGEIMSLSAATPKHLKSIGLLSPDFQEDNETEINFLLKQALTIVGTLPFTYMLEKWRWMVFKGEIPKDQWMKKWWEMKREIVGVVEPVPHDETYCDPASLFHVSNDYSFIRYYTRTLYQFQFQEALCQAAKHEGPLHKCDISNSTEAGQKLFNMLRLGKSEPWTLALENVVGAKNMNVRPLLNYFEPLFTWLKDQNKNSFVGWSTDWSPYADQSIK
notes: as for B3
Consider B6, for which the Kd in assay [2] is 220 nM and 246 nM and 233 nM; in assay [3] it was 83.2 nM and 116 nM and 99.5 nM.

B7: soluble hACE2 N53S/N322S (receptor)
chain: STIEEQAKTFLDKFNHEAEDLFYQSSLASWNYNTSITEENVQNMNNAGDKWSAFLKEQSTLAQMYPLQEIQNLTVKLQLQALQQNGSSVLSEDKSKRLNTILNTMSTIYSTGKVCNPDNPQECLLLEPGLNEIMANSLDYNERLWAWESWRSEVGKQLRPLYEEYVVLKNEMARANHYEDYGDYWRGDYEVNGVDGYDYSRGQLIEDVEHTFEEIKPLYEHLHAYVRAKLMNAYPSYISPIGCLPAHLLGDMWGRFWTNLYSLTVPFGQKPNIDVTDAMVDQAWDAQRIFKEAEKFFVSVGLPSMTQGFWENSMLTDPGNVQKAVCHPTAWDLGKGDFRILMCTKVTMDDFLTAHHEMGHIQYDMAYAAQPFLLRNGANEGFHEAVGEIMSLSAATPKHLKSIGLLSPDFQEDNETEINFLLKQALTIVGTLPFTYMLEKWRWMVFKGEIPKDQWMKKWWEMKREIVGVVEPVPHDETYCDPASLFHVSNDYSFIRYYTRTLYQFQFQEALCQAAKHEGPLHKCDISNSTEAGQKLFNMLRLGKSEPWTLALENVVGAKNMNVRPLLNYFEPLFTWLKDQNKNSFVGWSTDWSPYADQSIK
notes: as for B3
In the case of B7, the Kd is 438 nM and 457 nM and 448 nM in assay [2]; 163 nM and 162 nM (2×) in assay [3].

B8: soluble hACE2 N90A/N322A (receptor)
chain: STIEEQAKTFLDKFNHEAEDLFYQSSLASWNYNTNITEENVQNMNNAGDKWSAFLKEQSTLAQMYPLQEIQALTVKLQLQALQQNGSSVLSEDKSKRLNTILNTMSTIYSTGKVCNPDNPQECLLLEPGLNEIMANSLDYNERLWAWESWRSEVGKQLRPLYEEYVVLKNEMARANHYEDYGDYWRGDYEVNGVDGYDYSRGQLIEDVEHTFEEIKPLYEHLHAYVRAKLMNAYPSYISPIGCLPAHLLGDMWGRFWTNLYSLTVPFGQKPNIDVTDAMVDQAWDAQRIFKEAEKFFVSVGLPAMTQGFWENSMLTDPGNVQKAVCHPTAWDLGKGDFRILMCTKVTMDDFLTAHHEMGHIQYDMAYAAQPFLLRNGANEGFHEAVGEIMSLSAATPKHLKSIGLLSPDFQEDNETEINFLLKQALTIVGTLPFTYMLEKWRWMVFKGEIPKDQWMKKWWEMKREIVGVVEPVPHDETYCDPASLFHVSNDYSFIRYYTRTLYQFQFQEALCQAAKHEGPLHKCDISNSTEAGQKLFNMLRLGKSEPWTLALENVVGAKNMNVRPLLNYFEPLFTWLKDQNKNSFVGWSTDWSPYADQSIK
notes: as for B1
In the case of B8, the Kd in assay [2] was 127 nM and 103 nM; in assay [3], 36.5 nM and 36 nM and 36.3 nM.

B9: soluble hACE2 N53S/N90S (receptor)
chain: STIEEQAKTFLDKFNHEAEDLFYQSSLASWNYNTSITEENVQNMNNAGDKWSAFLKEQSTLAQMYPLQEIQSLTVKLQLQALQQNGSSVLSEDKSKRLNTILNTMSTIYSTGKVCNPDNPQECLLLEPGLNEIMANSLDYNERLWAWESWRSEVGKQLRPLYEEYVVLKNEMARANHYEDYGDYWRGDYEVNGVDGYDYSRGQLIEDVEHTFEEIKPLYEHLHAYVRAKLMNAYPSYISPIGCLPAHLLGDMWGRFWTNLYSLTVPFGQKPNIDVTDAMVDQAWDAQRIFKEAEKFFVSVGLPNMTQGFWENSMLTDPGNVQKAVCHPTAWDLGKGDFRILMCTKVTMDDFLTAHHEMGHIQYDMAYAAQPFLLRNGANEGFHEAVGEIMSLSAATPKHLKSIGLLSPDFQEDNETEINFLLKQALTIVGTLPFTYMLEKWRWMVFKGEIPKDQWMKKWWEMKREIVGVVEPVPHDETYCDPASLFHVSNDYSFIRYYTRTLYQFQFQEALCQAAKHEGPLHKCDISNSTEAGQKLFNMLRLGKSEPWTLALENVVGAKNMNVRPLLNYFEPLFTWLKDQNKNSFVGWSTDWSPYADQSIK
notes: as for B3
On to B9, for which the Kd was 223 nM and 226 nM and 224 nM in assay [2]; 101 nM and 123 nM and 112 nM in assay [3].

The values are drawn from paper PMC9637154 (Communications Biology, 2022).
